Data taken from patent US20250034266A1.
Positions count from the first letter of the chain named. Values belong to the binder of their own block, whether it stands above or below them.

Molecular target: human CCR8 (human) (UniProt P51685)
Assay: cell-based or functional assay

human CCR8 (human), sequence (P51685 whole entry): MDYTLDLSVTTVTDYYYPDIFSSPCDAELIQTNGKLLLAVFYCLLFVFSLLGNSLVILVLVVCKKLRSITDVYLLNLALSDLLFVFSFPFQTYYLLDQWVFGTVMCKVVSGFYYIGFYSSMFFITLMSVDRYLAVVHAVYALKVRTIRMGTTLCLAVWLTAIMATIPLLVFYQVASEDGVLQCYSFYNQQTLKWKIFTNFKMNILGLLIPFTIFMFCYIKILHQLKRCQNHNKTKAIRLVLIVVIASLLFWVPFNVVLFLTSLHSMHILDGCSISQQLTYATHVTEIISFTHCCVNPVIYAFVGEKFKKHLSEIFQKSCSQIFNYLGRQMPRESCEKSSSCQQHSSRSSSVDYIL

- β-arrestin recruitment EC50 (CHO-K1 cells co-expressing PK-tagged human CCR8 and EA): 288 pM
B1: CCL1 (CN-07, Almac) (ligand, UniProt P22362 24-96, looked up)
chain: KSMQVPFSRCCFSFAEQEIPLRAILCYRNTSSICSNEGLIFKLKRGKEACALDTVGWVQRHRKMLRHCPSKRK

- EC50, ADCC reporter, F variant CD16a/NFAT-Jurkat, target CHO-K1-human CCR8 cells: 3.51 pM
- EC50, ADCC reporter, F variant CD16a/NFAT-Jurkat, target HuT78 cells: 4.6 pM
- EC50, ADCC reporter, V variant CD16a/NFAT-Jurkat, target CHO-K1-human CCR8 cells: 4.87 pM
- EC50, ADCC reporter, V variant CD16a/NFAT-Jurkat, target HuT78 cells: 5.59 pM
- EC50, ADCC with human PBMCs, target CHO-K1-human CCR8 cells: 0.384 pM
- Max (RLU), ADCC reporter, F variant CD16a/NFAT-Jurkat, target CHO-K1-human CCR8 cells: 8.34e+06 RLU
- Max (RLU), ADCC reporter, F variant CD16a/NFAT-Jurkat, target HuT78 cells: 1.51e+07 RLU
- Max (RLU), ADCC reporter, V variant CD16a/NFAT-Jurkat, target CHO-K1-human CCR8 cells: 4.09e+06 RLU
- Max (RLU), ADCC reporter, V variant CD16a/NFAT-Jurkat, target HuT78 cells: 9.06e+06 RLU
- Max specific lysis (%), ADCC with human PBMCs, target CHO-K1-human CCR8 cells: 44.2%
B2: Hu149-11G1x (antibody, V domains shown, not shown: a dimerising Fc or GST)
VH: EVQLVESGGGLVQPGGSLKLSCAASGFTFNTYAMNWVRQASGKGLEWVGRIRSKSNFYATAYAASVKGRFTISRDDSKNTAYLQMNSLKTEDTAVYYCTRGREYGSSYAMDYWGQGTLVTVSS
VL: DIVMTQSPLSLPVTPGEPASISCRSSKSLLHSNANTYLYWFLQKPGQSPQLLIYRMSNLASGVPDRFSGSGSGTDFTLKISRVEAEDVGVYYCMQHLEYPLTFGGGTKVELK

- EC50, ADCC reporter, F variant CD16a/NFAT-Jurkat, target CHO-K1-human CCR8 cells: 2.99 pM
- EC50, ADCC reporter, F variant CD16a/NFAT-Jurkat, target HuT78 cells: 4.28 pM
- EC50, ADCC reporter, V variant CD16a/NFAT-Jurkat, target CHO-K1-human CCR8 cells: 5.05 pM
- EC50, ADCC reporter, V variant CD16a/NFAT-Jurkat, target HuT78 cells: 4.58 pM
- EC50, ADCC with human PBMCs, target CHO-K1-human CCR8 cells: 0.828 pM
- Max (RLU), ADCC reporter, F variant CD16a/NFAT-Jurkat, target CHO-K1-human CCR8 cells: 8.27e+06 RLU
- Max (RLU), ADCC reporter, F variant CD16a/NFAT-Jurkat, target HuT78 cells: 1.56e+07 RLU
- Max (RLU), ADCC reporter, V variant CD16a/NFAT-Jurkat, target CHO-K1-human CCR8 cells: 4.13e+06 RLU
- Max (RLU), ADCC reporter, V variant CD16a/NFAT-Jurkat, target HuT78 cells: 8.88e+06 RLU
- Max specific lysis (%), ADCC with human PBMCs, target CHO-K1-human CCR8 cells: 53%
B3: Hu149-12G1x (antibody, V domains shown, not shown: a dimerising Fc or GST)
VH: B2 VH with R102K
VL: B2 VL
